# Test results from patent US12697366B2, “Thermogenic compositions and methods” (Ohio State Innovation Foundation, priority 2016, dated 2026).
# B1: IGFBP4: recombinant insulin-like growth factor binding protein 4 (protein)
# chain: DEAIHCPPCSEEKLARCRPPVGCEELVREPGCGCCATCALGLGMPCGVYTPRCGSGLRCYPPRGVEKPLHTLMHGQGVCMELAEIEAIQESLQPSDKDEGDHPNNSFSPCSAHDRRCLQKHFAKIRDRSTSGGKMKVNGAPREDARPVPQGSCQSELHRALERLAASQSRTHEDLYIIPIPNCDRNGNFHPKQCHPALDGQRGKCWCVDRKTGVKLPGGLEPKGELDCHQLADSFRE
# Legend:
# [1] = system: 3T3-L1 preadipocytes; experiment: FD-glucose uptake in 3T3-L1 preadipocytes; type: cell-based, mouse; details: mouse recombinant IGFBP4; human insulin 10 μg/mL; 90 min
# Method: Non-differentiated, 90% confluent 3T3-L1 cells were starved with glucose-deprived medium for 40 min. Then cells were treated in the presence and absence of different concentrations of nanoscaffold #2 and bovine insulin (200 μg/mL), all of reagents dissolved in the same glucose-deprived medium but containing fluorescent-D (FD)-glucose for 80 min. Thereafter, the FD glucose uptake was measured according to manufacturer's instructions (Cayman Chemical, USA, cat #600471). […] Non-differentiated, 90% confluent 3T3-L1 cells treated in the presence and absence of different concentrations of nanoscaffold #2 and bovine insulin (10 μg/mL) or mouse epiregulin (EREG, 0.05 μg/mL) and incubated for 24 h. Then cells were starved with glucose-deprived medium for 40 min and, then incubated with fluorescent-D (FD)-glucose for 80 min. Thereafter, the FD glucose uptake was measured according to manufacturer's instructions (Cayman Chemical, USA, cat #600471). Data are shown as percent of uptake in the presence of insulin (100%).
# Non-differentiated, 90% confluent 3T3-L1 cells treated in the presence of bovine insulin (10 μg/mL), mouse epiregulin (EREG, 0.05 μg/mL), or their combinations and incubated for 24 h. Then cells were starved with glucose-deprived medium for 40 min and, then incubated with fluorescent-D (FD)-glucose for 80 min. Thereafter, the FD glucose uptake was measured according to manufacturer's instructions (Cayman Chemical, USA, cat #600471).
# Non-differentiated, 90% confluent 3T3-L1 cells were starved with glucose-deprived medium for 50 min. Then cells were treated in the presence and absence of different concentrations of mouse recombinant IGFBP4 with and without nanoscaffold #2 and human insulin (10 μg/mL). All of reagents were dissolved in the same glucose-deprived medium but containing fluorescent-D (FD)-glucose for 90 min. Thereafter, the FD glucose uptake was measured according to manufacturer's instructions (Cayman Chemical, USA, cat #600471).
# Glucose uptake assay was performed using glucose uptake cell-based assay kit (Cayman Chemical, Ann Arbor, MI). 3T3-L1 or human preadipocytes were cultured at a density of 5×10^4 per well into a 96-well plate (n=7) in high glucose media and grown overnight. Old cell culture medium was removed the next day and washed with PBS to remove residual glucose. Supplied 2-deoxy-2-[(7-nitro-2,1,3-benzoxadiazol-4-yl)amino]-D-glucose) (2-NBDG) was diluted to 150 μg/mL in DMEM medium without glucose, phenol red, L-glutamine, sodium pyruvate, and HEPES (Life technologies, Grand Island, New York). 100 μL of 2-NBDG glucose free medium with or without recombinant EREG and other treatments was added to the plated cells. After incubating at 37° C. for 30 minutes, cells were washed gently two times with 200 μL of glucose assay buffer. 100 μL of the assay buffer was added to each well and measured for fluorescence at an excitation/emission of 485/535 nm.
# Fluorescence glucose uptake (FD-glucose assay) was performed as described PMID: 32065973, using insulin, 1.7 μM and different AACs at concentration 0.1 μM.
# FD-glucose uptake in mouse 3T3-L1 preadipocytes (n=8 per treatment) treated with vehicle (Veh; PBS, open bar) or hINS (1.7 μM), mouse leptin (mLep; 12.5 nM, hatched bar), or AAC2 (0.1 μM black bar) in the presence and absence of GLUT1 inhibitor (BAY-876; 10 nM in DMSO). Cells were pre-treated with or without BAY-876 for 40 min and then FD glucose and treatment reagents were added for additional 80 min of incubation. Data (%) was normalized to FD-glucose uptake in control (Veh) 3T3-L1 cells without inhibitor (100%). Student's independent t-test.
# [2] = system: ob/ob mice; experiment: AAC2, IGFBP4 and AAC2-IGFBP4 treatment of ob/ob mice; type: in vivo, mouse; details: ELISA, end of study
# Method: A study was performed in ob/ob mouse model of obesity, insulin resistance, and type 2 diabetes. Treatment groups (n=5) included vehicle (non-treated control), AAC2 nanofiber alone, IGFBP4 peptide alone, and AAC2-IGFBP4 peptide bound to nanofiber. 5-week old male Lep^ob mice (ob/ob mice, Jackson #000632-B6.Cg-Lepob/J, Homozygous for Lepob) were randomized into four groups (n=5/group). After 1 week assimilation period, mice were injected (10 μl/g body weight (BW)) into scapular region every 48 h for 4 weeks with: • Group 1: PBS vehicle control, • Group 2: 1 nmol AAC2/g BW, • Group 3: 0.0187 nmol human insulin-like growth factor binding protein 4 (hIGFBP4, Peprotech #350-05B), or • Group 4: AAC2/hIGFBP4 combination (1 nmol AAC2 and 0.0187 nmol hIGFBP4/g BW were assembled into complex prior to injection)
molecule,measurement,setting,value
B1,"glucose uptake, concentration compared with insulin",[1],improves glucose uptake at 100 lower concentration than insulin
same,hyperinsulinemia (insulin levels in the blood),[2],reduction
